This is an account of results in patent publication US20110135662A1 (UCB, published 2011).

Residue numbers refer to the chain shown, from its start. Where no end group is shown, it is not given here.

Assay [1] deals with T1, B11.7 Cyclo[biotinyl-PEG-cysPMTEEFKN] (not fully specified; cyclic; biotinyl-PEG on the cysteine).
T1 construct: also called B11.7 peptide; Nav 1.7 peptide
T1 peptide: CPMTEEFKN
As to the kind of experiment: peptide binding ELISA (FIG. 3K legend). How it is done: (§1) Nunc 96 well plates were coated overnight at 4° C. in 5 ug/ml Streptavidin (Jackson 016-000-114) 100 ul/well in carbonate coating buffer. Plates were washed four times in PBS/tween and 200 ul/well of block (1% BSA in PBS) was added for 1 hour at RT. Plates were washed four times in PBS/tween and 100 ul/well of biotinylated peptide at 5 ug/ml was added for 1 hour at RT. Plates were washed four times in PBS/tween and 100 ul/well of antibody added (starting at 10 ug/ml diluting in block in half logs down the plate) for 1 hour at RT. Plates were washed four times in PBS/tween and […] goat anti rabbit Fc HRP (Jackson 111-036-046) added for 1 hour at RT. Plates were washed four times in PBS/tween and 100 ul/well TMB (3,3′,5,5′ Tetramethylbenzidine) solution added. 50 ul/well of NaF was added to stop reaction and absorbance read at 630 nm.

A further assay deals with T2, B11-CPMTEEFKN (cyclic) (human, also: biotinylated in screening assay, position not given here).
T2 construct: Human Nav1.7 peptide; also called Nav1.7 peptide B11
T2 peptide: cyclo(CPMTEEFKN)
As to the kind of experiment: peptide specificity; bead-based FMAT screen on biotinylated peptide. How it is done: (§2) SLAM was performed using substantially the methods described in Tickle et al. 2009 (JALA, Vol. 14, number 5, p303-307). Briefly, SLAM cultures were set up using rabbit splenocytes or PBMC and supernatants were first screened for their ability to bind biotinylated peptide in a bead-based assay in the FMAT. […] Positives from this screen were then put through a negative screen to identify non-specific antibodies.

The target of assay [2] is T3, B11.1 Cyclo[biotinyl-PEG-cysEHYPMTDHFNN] (not fully specified (N-terminus, bridges); printed as Cyclo[biotinyl-PEG-cysEHYPMTDHFNN]; also: biotinyl-PEG on the cysteine).
T3 construct: also called Nav 1.1 E1 peptide
T3 peptide: CEHYPMTDHFNN
As to the kind of experiment: peptide binding ELISA, biotinylated peptide on streptavidin. How it is done:
as §1
(In general: An ELISA detects its analyte on a solid surface through an enzyme-linked reagent.)

Assay [3] concerns the target T4, B11.2/3 Cyclo[biotinyl-PEG-cysEHYPMTEQFSS] (not fully specified (N-terminus, bridges); printed as Cyclo[biotinyl-PEG-cysEHYPMTEQFSS]; also: biotinyl-PEG on the cysteine).
T4 construct: also called Nav 1.2 and 1.3 E1 peptide
T4 peptide: CEHYPMTEQFSS
The description is as above. How it is done:
as §1

The target in assay [4] is T5, B11.5 Cyclo[biotinyl-PEG-cysEHYNMTSEFEE] (not fully specified; cyclic; biotinyl-PEG on the cysteine).
T5 construct: also called Nav 1.5 E1 peptide
T5 peptide: CEHYNMTSEFEE
Described as above. On the procedure:
as §1

Assay [5] deals with T6, B11.9 Cyclo[biotinyl-PEG-cysEHHKMEASFEK] (not fully specified; cyclic; biotinyl-PEG on the cysteine).
T6 construct: also called Nav 1.9 E1 peptide
T6 peptide: CEHHKMEASFEK
The description is as above. On the procedure: as §1

For assay [6], the target named is T7, B11.8 Cyclo[biotinyl-PEG-cysEHHGMSPTFEA] (not fully specified; cyclic; biotinyl-PEG on the cysteine).
T7 construct: also called Nav 1.8 E1 peptide
T7 peptide: CEHHGMSPTFEA
Described as above. On the procedure:
as §1

For assay [7], the target named is T8, B11.4 Cyclo[biotinyl-PEG-cysEHYPMTEHFDN] (not fully specified (N-terminus, bridges); printed as Cyclo[biotinyl-PEG-cysEHYPMTEHFDN]; also: biotinyl-PEG on the cysteine).
T8 construct: also called Nav 1.4 E1 peptide
T8 peptide: CEHYPMTEHFDN
The description is as above. On the procedure: as §1

Assay [8] addresses T9, B11.6 Cyclo[biotinyl-PEG-cysEHHPMTPQFEH] (not fully specified; cyclic; biotinyl-PEG on the cysteine).
T9 construct: also called Nav 1.6 E1 peptide
T9 peptide: CEHHPMTPQFEH
The description is as above. On the procedure: as §1

The target in assay [9] is human Nav1.7 channel (type IX voltage-gated sodium channel alpha subunit) (human, UniProt Q15858 1-1988). As to the kind of experiment: cell-based or functional assay.
Assay [10] deals with T1, B11.7 Cyclo[biotinyl-PEG-cysPMTEEFKN]. As to the kind of experiment: peptide binding ELISA (FIG. 3J legend). How it is done: as §1
Assay [11] concerns the target T10, A32-CTLESIMNTLESEEDFRKY (cyclic) (human, also: biotinylated in screening assay, position not given here).
T10 construct: Human Nav1.7 peptide; also called Nav1.7 peptide A32
T10 peptide: cyclo(CTLESIMNTLESEEDFRKY)
As to the kind of experiment: peptide specificity; bead-based FMAT screen on biotinylated peptide. How it is done:
as §2

B1: CA167_01080 (antibody, rabbit IgG1, V domains shown)
VH: QSLEESGGRLVTPETPLTLTCTASGIDLSKWPMTWVRQAPGKGLEWIGIIGRSGSTNYASWAKGRFTISKTSTTVDLKMTSPTTEDTATYFCARGGSYYDLWGQGTLVTVS
VL: AQVLTQTASPVSAAVGNTVTITCQSSQSVWKNNDLSWYQQKLGQPPKLLIYYASTLASGVSSRFKASGSGTQFTLTISDVQCDDAGTYYCVGSYDCSSADCNAFGGGTKVVVK
notes: Rabbit monoclonal from rabbit 3824
In the case of B1, the binding result was “binds” in assay [1]; “binds” with B11-CPMTEEFKN (cyclic); “no binding (tested: antibody starting at 10 ug/ml)” in assay [2]; “no binding (tested: antibody starting at 10 ug/ml)” in assay [3]; “no binding (tested: antibody starting at 10 ug/ml)” in [4]; “no binding (tested: antibody starting at 10 ug/ml)” in [5]. Further, the binding result in [6], in [7] and in assay [8] was “no binding (tested: antibody starting at 10 ug/ml)” each time. In addition, the “Nav1.7 inhibition (%) at 25 µg/ml, automated patch clamp, HEK cells” value (“Nav1.7 inhibition (%) at 25 µg/ml” for short) in assay [9] amounted to 46%.

B2: CA167_00983 (antibody, rabbit IgG1, V domains shown)
VH: QSVEESGGRLVTPGTPLTLTCTVSGFSLSNYAMSWVRQAPGKGLEWIGIIGKSGSTAYASWAKGRFTISRTSTTVDLEITSPTTEDTATYFCVRFVLLWGPGTLVTVS
VL: B1 VL with N17G, T22N, W30Y, S36A, L42P, A66G, Q72E, V80A, G86A, V91L
notes: as for B1
As to B2, the binding result was “binds” with B11-CPMTEEFKN (cyclic); “binds” in [10]; “no binding (tested: antibody starting at 10 ug/ml)” in [2]; “no binding (tested: antibody starting at 10 ug/ml)” in [3]; “no binding (tested: antibody starting at 10 ug/ml)” in [4]; “no binding (tested: antibody starting at 10 ug/ml)” in [5]. Moreover, the binding result in [6], in assay [7] and in [8] was “no binding (tested: antibody starting at 10 ug/ml)” each time. Also, the “Nav1.7 inhibition (%) at 25 µg/ml” value in assay [9] is 41%.

B3: CA167_00932 (antibody, rabbit IgG1, V domains shown)
VH: QSLEESGGRLVTPGTPLTLTCTVSGFSLSRYWMSWVRQAPGKGLEWIGNIGGGSGSTLYAPWAKGRSTISKTSTTVDLKITSPTTEDTATYFCGRYVKNGGGYRLDLWGPGTLVTVS
VL: AAVLTQTPSSVSAAVGGTVTIKCQSSQSVYNNNEFSWYQQKPGQPPKLLIYDASKLASGVPSRFSGSGSGTQFTLTISGVQCDDVATYYCLGGYNDDTNRWAFGGGTEVVVE
notes: Rabbit monoclonal from rabbit 3822; also called antibody 932
Turning to B3, the binding result in assay [11] is recorded as “binds”. Further, the “Nav1.7 inhibition (%) at 25 µg/ml” value in assay [9] was 27%.
